Where a chain is given by its changes, count along the chain named.
T1: RB1 double mutant K791A/K824A
T1 chain: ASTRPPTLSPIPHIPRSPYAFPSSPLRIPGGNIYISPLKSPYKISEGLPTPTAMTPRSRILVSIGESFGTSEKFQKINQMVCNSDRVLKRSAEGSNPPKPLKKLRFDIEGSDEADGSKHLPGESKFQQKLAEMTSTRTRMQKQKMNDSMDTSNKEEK

T2: RB1 double mutant K814A/K824A
T2 chain: T1 chain with A20K, K43A

T3: RB1 mutant K791A
T3 chain: T1 chain with A53K

T4: RB1 mutant K814A
T4 chain: T1 chain with A20K, K43A, A53K

T5: RB1 substrate domain mutant K824A
T5 chain: T1 chain with A20K

T6: RB1 substrate domain mutant K889A
T6 chain: T1 chain with A20K, A53K, K118A

T7: RB1 substrate domain mutant K896A
T7 chain: T1 chain with A20K, A53K, K125A

T8: Recombinant C-terminal region of RB1 (codons 769-921)
T8 chain: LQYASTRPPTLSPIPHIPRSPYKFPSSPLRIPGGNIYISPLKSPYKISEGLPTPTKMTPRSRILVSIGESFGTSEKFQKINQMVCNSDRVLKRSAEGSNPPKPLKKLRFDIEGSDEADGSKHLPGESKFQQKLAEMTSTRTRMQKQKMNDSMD

T9: full-length recombinant RB protein (3108, QED Bioscience)
T9 chain: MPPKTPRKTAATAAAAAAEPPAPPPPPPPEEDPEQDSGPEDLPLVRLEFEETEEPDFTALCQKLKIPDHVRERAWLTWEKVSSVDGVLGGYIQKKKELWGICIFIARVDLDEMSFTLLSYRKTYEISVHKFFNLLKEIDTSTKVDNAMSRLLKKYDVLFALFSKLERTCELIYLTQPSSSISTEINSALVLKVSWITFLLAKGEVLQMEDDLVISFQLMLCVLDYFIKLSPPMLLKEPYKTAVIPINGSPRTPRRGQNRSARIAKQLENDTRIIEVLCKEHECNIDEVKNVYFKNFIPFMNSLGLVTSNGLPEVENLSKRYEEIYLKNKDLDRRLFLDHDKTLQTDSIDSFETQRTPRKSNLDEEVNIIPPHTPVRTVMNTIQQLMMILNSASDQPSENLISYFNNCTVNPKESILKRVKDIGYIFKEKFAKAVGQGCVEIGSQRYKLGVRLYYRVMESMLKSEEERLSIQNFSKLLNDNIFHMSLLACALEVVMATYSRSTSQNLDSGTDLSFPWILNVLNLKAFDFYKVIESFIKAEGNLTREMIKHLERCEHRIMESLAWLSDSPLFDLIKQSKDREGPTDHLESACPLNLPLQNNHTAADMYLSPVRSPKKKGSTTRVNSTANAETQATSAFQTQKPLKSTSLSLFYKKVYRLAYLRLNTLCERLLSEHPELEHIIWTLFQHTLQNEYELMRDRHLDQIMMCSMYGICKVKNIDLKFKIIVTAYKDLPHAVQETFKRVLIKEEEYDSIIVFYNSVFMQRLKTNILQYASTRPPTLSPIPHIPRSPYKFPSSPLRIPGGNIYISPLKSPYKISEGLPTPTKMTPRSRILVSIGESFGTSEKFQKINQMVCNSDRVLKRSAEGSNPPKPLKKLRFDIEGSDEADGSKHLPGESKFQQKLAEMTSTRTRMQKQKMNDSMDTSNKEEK

B1: Recombinant SMYD3 protein (prepared in Sf9 cells, Baculovirus system) (protein)
chain: MEPLKVEKFATANRGNGLRAVTPLRPGELLFRSDPLAYTVCKGSRGVVCDRCLLGKEKLMRCSQCRVAKYCSAKCQKKAWPDHKRECKCLKSCKPRYPPDSVRLLGRVVFKLMDGAPSESEKLYSFYDLESNINKLTEDKKEGLRQLVMTFQHFMREEIQDASQLPPAFDLFEAFAKVICNSFTICNAEMQEVGVGLYPSISLLNHSCDPNCSIVFNGPHLLLRAVRDIEVGEELTICYLDMLMTSEERRKQLRDQYCFECDCFRCQTQDKDADMLTGDEQVWKEVQESLKKIEELKAHWKWEQVLAMCQAIISSNSERLPDINIYQLKVLDCAMDACINLGLLEEALFYGTRTMEPYRIFFPGSHPVRGVQVMKVGKLQLHQGMFPQAMKNLRLAFDIMRVTHGREHSLIEDLILLLEECDANIRAS
B2: Flag-tagged wild-type SMYD3 immunoprecipitated from 293T cells (p3XFLAG-CMV-SMYD3) (protein)
chain: B1 chain

Columns and labels:
[1] = target: T1, RB1 double mutant K791A/K824A
[2] = target: T2, RB1 double mutant K814A/K824A
[3] = target: T3, RB1 mutant K791A
[4] = target: T4, RB1 mutant K814A
[5] = target: T5, RB1 substrate domain mutant K824A
[6] = target: T6, RB1 substrate domain mutant K889A
[7] = target: T7, RB1 substrate domain mutant K896A
[8] = target: T8, Recombinant C-terminal region of RB1 …
[9] = target: recombinant histone H3
[10] = target: Recombinant full-length GST-p53 (wild-type p53), P04637
[11] = target: T9, full-length recombinant RB protein …

Sequence of Recombinant full-length GST-p53 (wild-type p53), P04637 (P04637 whole entry, looked up): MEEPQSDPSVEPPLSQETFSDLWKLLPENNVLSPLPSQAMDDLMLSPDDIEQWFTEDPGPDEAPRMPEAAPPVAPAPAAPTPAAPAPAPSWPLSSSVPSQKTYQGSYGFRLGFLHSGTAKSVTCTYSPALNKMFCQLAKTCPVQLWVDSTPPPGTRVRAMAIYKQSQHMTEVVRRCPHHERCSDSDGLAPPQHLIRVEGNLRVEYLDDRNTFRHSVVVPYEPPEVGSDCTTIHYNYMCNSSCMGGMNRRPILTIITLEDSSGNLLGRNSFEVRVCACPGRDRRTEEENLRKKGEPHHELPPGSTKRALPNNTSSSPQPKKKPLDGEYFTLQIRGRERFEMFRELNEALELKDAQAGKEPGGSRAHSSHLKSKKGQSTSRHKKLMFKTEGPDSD

Protein	methylation by SMYD3 (fluorogram, liquid scintillation counter) [1]	methylation by SMYD3 (fluorogram, liquid scintillation counter) [2]	methylation by SMYD3 (fluorogram, liquid scintillation counter) [3]	methylation by SMYD3 (fluorogram, liquid scintillation counter) [4]	methylation by SMYD3 (autoradiography, liquid scintillation counter) [5]	methylation by SMYD3 (autoradiography, liquid scintillation counter) [6]	methylation by SMYD3 (autoradiography, liquid scintillation counter) [7]	incorporation of 3H-labeled methyl donor (liquid scintillation counter) [8]	methyltransferase (MTase) activity [9]	methylation of substrate (in vitro MTase assay with 3H-labeled SAM, PAGE and autoradiography) [8]	methylation of substrate (in vitro MTase assay with 3H-labeled SAM, PAGE and autoradiography) [10]	methylation of substrate (in vitro MTase assay) [11]	methylation of substrate (in vitro MTase assay with 3H-labeled SAM, PAGE and autoradiography) [9]
B1	showed equivalent levels of methylation to the K824A protein	showed equivalent levels of methylation to the K824A protein	K791A and K814A, showed similar levels of methylation to wild type-RB1	K791A and K814A, showed similar levels of methylation to wild type-RB1	methylation of K824A was significantly decreased	the K889A and K896A mutants were methylated at similar levels by SMYD3	the K889A and K896A mutants were methylated at similar levels by SMYD3	four to six fold higher amount of 3H-labeled methyl donor in the presence of SMYD3 than the absence of SMYD3	a dose-dependent increase of MTase activity on both substrates	–	–	–	–
B2	–	–	–	–	–	–	–	–	–	bands corresponding to methylated RB1 were also detected	no bands corresponding to methylated p53 were detected	SMYD3 methylated full length of RB1	bands corresponding methylated histone H3
